Measured values reported in patent US20220363736A1 (ICAHN SCHOOL OF MEDICINE AT MOUNT SINAI, published 2022).
Read-outs that look alike come from different tables or passages of the source.

Columns and labels:
[1] = target: neuraminidase of wild type B/Malaysia/2506/04 virus (influenza B virus B/Malaysia/2506/04)
[2] = target: recombinant neuraminidase (rNA) from B/Florida/04/2006 (influenza B virus B/Florida/04/06)
[3] = target: neuraminidase of the ancestral B/Lee/40 strain (influenza B virus B/Lee/40, UniProt P03474 1-466); test: ELISA on purified whole virus
[4] = target: recombinant neuraminidase (rNA) from B/Florida/04/2006 (influenza B virus B/Florida/04/06); remark: listed apart in the source
[5] = target: neuraminidase of wild type B/Malaysia/2506/04 virus (influenza B virus B/Malaysia/2506/04); remark: listed apart in the source
[6] = target: recombinant neuraminidase (rNA) from B/Malaysia/2506/04 (influenza B virus B/Malaysia/2506/04)
[7] = target: recombinant neuraminidase (rNA) from B/Malaysia/2506/04 (influenza B virus B/Malaysia/2506/04); remark: listed apart in the source
[8] = target: neuraminidase of wild type B/Malaysia/2506/04 virus (influenza B virus B/Malaysia/2506/04); remark: listed apart in the source

Sequence of neuraminidase of the ancestral B/Lee/40 strain (P03474 whole entry): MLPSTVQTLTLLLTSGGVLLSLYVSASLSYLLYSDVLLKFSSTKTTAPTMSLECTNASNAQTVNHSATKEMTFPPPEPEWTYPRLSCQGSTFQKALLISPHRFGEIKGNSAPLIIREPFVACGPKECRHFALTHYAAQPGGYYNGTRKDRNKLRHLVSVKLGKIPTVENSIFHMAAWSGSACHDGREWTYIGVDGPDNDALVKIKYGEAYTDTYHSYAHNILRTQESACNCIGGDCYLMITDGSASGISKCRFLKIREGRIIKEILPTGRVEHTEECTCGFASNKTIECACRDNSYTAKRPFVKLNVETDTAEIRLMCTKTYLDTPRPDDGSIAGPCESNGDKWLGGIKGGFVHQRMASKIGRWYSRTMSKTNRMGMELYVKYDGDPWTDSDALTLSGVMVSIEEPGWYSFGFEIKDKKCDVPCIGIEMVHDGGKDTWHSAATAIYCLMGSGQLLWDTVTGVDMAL

B1: monoclonal antibody 1F4 (hybridoma-produced, murine IgG2a) (antibody, V domains shown)
VH: QVHLQQSGSELRSPGSSVKLSCKDFDSEVFPIVYMRWIRQKPGHGFEWIGDILPSFGRTIYGEKFEDKATLDADTVSNTAYLELNSLTSEDSAIYYCARGDHGNWLAYWGQGTLVTVSA
VL: DIVMTQSHKFMSTSVGDRVTITCKASQDVSTNVAWYQQKPGQSPKLLIYWASTRHTGVPNRFTGIISGTDYTLTISSVQAEDRALYYCQQHYSAPWTFGGGTKLEIK
**Q.** What does the source list for B1?
**A.** IC50 (read off the curve) [1]: 4 µg/mL; EC50 (read off the curve) [2]: 0.05 µg/mL; binding result [3]: binds

B2: monoclonal antibody 1F2 (hybridoma-produced, murine IgG2a) (antibody, V domains shown)
VH: QVHLQQSGPEVARPGASVKLSCKASGYTFTDYYLNWVKQRPRQGLEWIGQIHPGSTNTYYNEKFKGKATLTADKSSSTAYMQLSSLTFEDSAVYFCAISLGDGYYVYAMVCWGQGTAVTVSS
VL: DIVMTQSQKFMSTSVGDRVSVTCKASQNVVTNVVWYQQKPGQSPKPLIYSASYRYSGVPDRFTGSGSGTDFTLTISNVQSEDLAEYCCQQYHSYPFTFGSGTKLEVK
**Q.** With B2 as the binder, how does the IC50 (read off the curve) [1] read?
**A.** The IC50 (read off the curve) was 2 µg/mL.

**Q.** And the EC50 (read off the curve) [4]?
**A.** Its EC50 (read off the curve) is 0.03 µg/mL.

**Q.** What about the IC50 (read off the curve) [5] of the same binder?
**A.** The IC50 (read off the curve) was 0.09 µg/mL.

**Q.** Does B2 bind [3]?
**A.** Result: binds

B3: recombinantly expressed 1F2 IgG1 (antibody, V domains shown)
VH: QVHLQQSGPEVARPGASVKLSCKASGYTFTDYYLNWVKQRPRQGLEWIGQIHPGSTNTYYNEKFKGKATLTADKSSSTAYMQLSSLTFEDSAVYFCAISLGDGYYVYAMVCWGQGTAVTVSS
VL: DIVMTQSQKFMSTSVGDRVSVTCKASQNVVTNVVWYQQKPGQSPKPLIYSASYRYSGVPDRFTGSGSGTDFTLTISNVQSEDLAEYCCQQYHSYPFTFGSGTKLEVK
**Q.** How did the Kd [6] turn out when B3 was run?
**A.** Its Kd is 1.05 nM.

**Q.** What about the EC50 (read off the curve) [4] of the same binder?
**A.** Its EC50 (read off the curve) is 0.05 µg/mL.

B4: recombinantly expressed 1F2 IgG2b (antibody, V domains shown)
VH: QVHLQQSGPEVARPGASVKLSCKASGYTFTDYYLNWVKQRPRQGLEWIGQIHPGSTNTYYNEKFKGKATLTADKSSSTAYMQLSSLTFEDSAVYFCAISLGDGYYVYAMVCWGQGTAVTVSS
VL: DIVMTQSQKFMSTSVGDRVSVTCKASQNVVTNVVWYQQKPGQSPKPLIYSASYRYSGVPDRFTGSGSGTDFTLTISNVQSEDLAEYCCQQYHSYPFTFGSGTKLEVK
**Q.** Which results are given for B4?
**A.** Kd [6]: 1.16 nM; EC50 (read off the curve) [4]: 0.03 µg/mL; IC50 (read off the curve) [5]: 0.3 µg/mL

B5: recombinantly expressed 1F2 monomeric IgA (antibody, V domains shown)
VH: QVHLQQSGPEVARPGASVKLSCKASGYTFTDYYLNWVKQRPRQGLEWIGQIHPGSTNTYYNEKFKGKATLTADKSSSTAYMQLSSLTFEDSAVYFCAISLGDGYYVYAMVCWGQGTAVTVSS
VL: DIVMTQSQKFMSTSVGDRVSVTCKASQNVVTNVVWYQQKPGQSPKPLIYSASYRYSGVPDRFTGSGSGTDFTLTISNVQSEDLAEYCCQQYHSYPFTFGSGTKLEVK
**Q.** B5 was tested. Which Kd [6] did it give?
**A.** Its Kd is 0.958 nM.

B6: 1F2 Fab (Fab, V domains shown)
VH: QVHLQQSGPEVARPGASVKLSCKASGYTFTDYYLNWVKQRPRQGLEWIGQIHPGSTNTYYNEKFKGKATLTADKSSSTAYMQLSSLTFEDSAVYFCAISLGDGYYVYAMVCWGQGTAVTVSS
VL: DIVMTQSQKFMSTSVGDRVSVTCKASQNVVTNVVWYQQKPGQSPKPLIYSASYRYSGVPDRFTGSGSGTDFTLTISNVQSEDLAEYCCQQYHSYPFTFGSGTKLEVK
**Q.** How did the IC50 (read off the curve) [1] turn out when B6 was run?
**A.** The IC50 (read off the curve) was 3 µg/mL.

B7: recombinantly expressed 1F2 polymeric IgA (antibody, V domains shown)
VH: QVHLQQSGPEVARPGASVKLSCKASGYTFTDYYLNWVKQRPRQGLEWIGQIHPGSTNTYYNEKFKGKATLTADKSSSTAYMQLSSLTFEDSAVYFCAISLGDGYYVYAMVCWGQGTAVTVSS
VL: DIVMTQSQKFMSTSVGDRVSVTCKASQNVVTNVVWYQQKPGQSPKPLIYSASYRYSGVPDRFTGSGSGTDFTLTISNVQSEDLAEYCCQQYHSYPFTFGSGTKLEVK
**Q.** For B7, which Kd [6] is on record?
**A.** Its Kd is 0.28 nM.

B8: recombinantly expressed 1F2 IgM (antibody, V domains shown)
VH: QVHLQQSGPEVARPGASVKLSCKASGYTFTDYYLNWVKQRPRQGLEWIGQIHPGSTNTYYNEKFKGKATLTADKSSSTAYMQLSSLTFEDSAVYFCAISLGDGYYVYAMVCWGQGTAVTVSS
VL: DIVMTQSQKFMSTSVGDRVSVTCKASQNVVTNVVWYQQKPGQSPKPLIYSASYRYSGVPDRFTGSGSGTDFTLTISNVQSEDLAEYCCQQYHSYPFTFGSGTKLEVK
**Q.** How did the Kd [6] turn out when B8 was run?
**A.** The Kd was 0.65 nM.

B9: recombinantly expressed 1F2 IgG2a (antibody, V domains shown)
VH: QVHLQQSGPEVARPGASVKLSCKASGYTFTDYYLNWVKQRPRQGLEWIGQIHPGSTNTYYNEKFKGKATLTADKSSSTAYMQLSSLTFEDSAVYFCAISLGDGYYVYAMVCWGQGTAVTVSS
VL: DIVMTQSQKFMSTSVGDRVSVTCKASQNVVTNVVWYQQKPGQSPKPLIYSASYRYSGVPDRFTGSGSGTDFTLTISNVQSEDLAEYCCQQYHSYPFTFGSGTKLEVK
**Q.** How did the Kd [6] turn out when B9 was run?
**A.** The Kd was 0.68 nM.

**Q.** And the EC50 (read off the curve) [4]?
**A.** The EC50 (read off the curve) was 0.03 µg/mL.

**Q.** What about the IC50 (read off the curve) [5] of the same binder?
**A.** Its IC50 (read off the curve) is 0.1 µg/mL.

B10: recombinantly expressed 4F11 IgG2b (antibody, V domains shown)
VH: DVKLVESGGDLVKPGGSLKLSCAASGFTFSAYSMSWVRQTPERRLEWVATINTGGSFTYYPDSVKGRFTISRDNAKNTLYLQMSSLKSEDTAMYFCTRVSDYGNSAYFPYWGQGTLVIVFA
VL: QVVLTQSPALISASPGEKVTMTCSASSNVNYMSWYQQRPRSSPKPWIYLTSKLASGVPPRFSGSGSGTSYSLTISSMEAEDVATYYCQQWSSDPQTFGGGTKVEIK
**Q.** How did the Kd [6] turn out when B10 was run?
**A.** The Kd was 0.00298 nM.

**Q.** What about the EC50 (read off the curve) [7] of the same binder?
**A.** Its EC50 (read off the curve) is 0.06 µg/mL.

**Q.** What about the IC50 (read off the curve) [8] of the same binder?
**A.** Its IC50 (read off the curve) is 0.2 µg/mL.

B11: recombinantly expressed 4F11 IgG1 (antibody, V domains shown)
VH: DVKLVESGGDLVKPGGSLKLSCAASGFTFSAYSMSWVRQTPERRLEWVATINTGGSFTYYPDSVKGRFTISRDNAKNTLYLQMSSLKSEDTAMYFCTRVSDYGNSAYFPYWGQGTLVIVFA
VL: QVVLTQSPALISASPGEKVTMTCSASSNVNYMSWYQQRPRSSPKPWIYLTSKLASGVPPRFSGSGSGTSYSLTISSMEAEDVATYYCQQWSSDPQTFGGGTKVEIK
**Q.** B11 was tested. Which Kd [6] did it give?
**A.** Its Kd is 0.00891 nM.

B12: recombinantly expressed 4F11 IgG2a (antibody, V domains shown)
VH: DVKLVESGGDLVKPGGSLKLSCAASGFTFSAYSMSWVRQTPERRLEWVATINTGGSFTYYPDSVKGRFTISRDNAKNTLYLQMSSLKSEDTAMYFCTRVSDYGNSAYFPYWGQGTLVIVFA
VL: QVVLTQSPALISASPGEKVTMTCSASSNVNYMSWYQQRPRSSPKPWIYLTSKLASGVPPRFSGSGSGTSYSLTISSMEAEDVATYYCQQWSSDPQTFGGGTKVEIK
**Q.** How did the Kd [6] turn out when B12 was run?
**A.** The Kd was 0.00336 nM.

B13: monoclonal antibody 4F11 (hybridoma-produced, murine IgG2b) (antibody, V domains shown)
VH: DVKLVESGGDLVKPGGSLKLSCAASGFTFSAYSMSWVRQTPERRLEWVATINTGGSFTYYPDSVKGRFTISRDNAKNTLYLQMSSLKSEDTAMYFCTRVSDYGNSAYFPYWGQGTLVIVFA
VL: QVVLTQSPALISASPGEKVTMTCSASSNVNYMSWYQQRPRSSPKPWIYLTSKLASGVPPRFSGSGSGTSYSLTISSMEAEDVATYYCQQWSSDPQTFGGGTKVEIK
**Q.** With B13 as the binder, how does the EC50 (read off the curve) [7] read?
**A.** The EC50 (read off the curve) was 0.05 µg/mL.

**Q.** What about the IC50 (read off the curve) [8] of the same binder?
**A.** Its IC50 (read off the curve) is 0.2 µg/mL.

**Q.** Does B13 bind [3]?
**A.** Result: binds

B14: recombinantly expressed 4F11 monomeric IgA (antibody, V domains shown)
VH: DVKLVESGGDLVKPGGSLKLSCAASGFTFSAYSMSWVRQTPERRLEWVATINTGGSFTYYPDSVKGRFTISRDNAKNTLYLQMSSLKSEDTAMYFCTRVSDYGNSAYFPYWGQGTLVIVFA
VL: QVVLTQSPALISASPGEKVTMTCSASSNVNYMSWYQQRPRSSPKPWIYLTSKLASGVPPRFSGSGSGTSYSLTISSMEAEDVATYYCQQWSSDPQTFGGGTKVEIK
**Q.** With B14 as the binder, how does the Kd [6] read?
**A.** Its Kd is 0.00472 nM.

B15: recombinantly expressed 4F11 polymeric IgA (antibody, V domains shown)
VH: DVKLVESGGDLVKPGGSLKLSCAASGFTFSAYSMSWVRQTPERRLEWVATINTGGSFTYYPDSVKGRFTISRDNAKNTLYLQMSSLKSEDTAMYFCTRVSDYGNSAYFPYWGQGTLVIVFA
VL: QVVLTQSPALISASPGEKVTMTCSASSNVNYMSWYQQRPRSSPKPWIYLTSKLASGVPPRFSGSGSGTSYSLTISSMEAEDVATYYCQQWSSDPQTFGGGTKVEIK
**Q.** B15 was tested. Which Kd [6] did it give?
**A.** Its Kd is 0.00242 nM.

B16: recombinantly expressed 4F11 IgM (antibody, V domains shown)
VH: DVKLVESGGDLVKPGGSLKLSCAASGFTFSAYSMSWVRQTPERRLEWVATINTGGSFTYYPDSVKGRFTISRDNAKNTLYLQMSSLKSEDTAMYFCTRVSDYGNSAYFPYWGQGTLVIVFA
VL: QVVLTQSPALISASPGEKVTMTCSASSNVNYMSWYQQRPRSSPKPWIYLTSKLASGVPPRFSGSGSGTSYSLTISSMEAEDVATYYCQQWSSDPQTFGGGTKVEIK
**Q.** B16 was tested. Which Kd [6] did it give?
**A.** The Kd was 0.00511 nM.

B17: monoclonal antibody 4B2 (hybridoma-produced, murine IgG2a) (antibody, V domains shown)
VH: QIQLVQSGPELKKPGETVKISCKASGFTFTDYPMHWVKQAPGKSLKWMGWINTETEEPTYSDDFKGRSPLSLETSASTTYLQINNLKNEDTSTYFCVRSGYYYGSTYAWFGYWGQGTLVTVSA
VL: DVVMTQIPLSLPVSLGDQASISCRSSQSLIHTNGDTFLHWYLQKPGQSPKLLIYKVSNRFSGVPDRFTGGGSGTDFTLKISRVEAEDLGIYFCSQSALFPYTFGGGTNLEIK
**Q.** Does B17 bind [3]?
**A.** Result: binds

B18: monoclonal antibody 3G1 (hybridoma-produced, murine IgG2a) (antibody, V domains shown)
VH: QVQLQQSGAELMKPGASVKISCKATGYKFTSYWIGWVKQRPGHGLEWCGEIFPGSGSINYNEKFKGKATFTADTSSNTAYLQLTSLTSEDSAVYYCARGEDYYGSSYGAMDYWGQGTSLTVSS
VL: DVQITQSPSYLAASPGETITINCRASKSISKYVAWYQEKPGRTNKVLIYSGSILSFGNPSRFSGSGSGTDFTLTISSLEPEDFAMYYCQQHNEYPWTFGGGTKLEIK
**Q.** Which IC50 (read off the curve) [1] does the source give for B18 here?
**A.** The IC50 (read off the curve) was 3 µg/mL.

**Q.** Does B18 bind [3]?
**A.** Result: binds
